Reference: paper PMC3202535, “A Novel Metagenomic Short-Chain Dehydrogenase/Reductase Attenuates Pseudomonas aeruginosa Biofilm Formation and Virulence on Caenorhabditis elegans” (PLoS ONE, 2011)

What was measured:
BpiB09 [1] = biological target: T1, BpiB09 (uncultured bacterium Bio5, UniProt B2BKB1); experiment: HPLC-MS of reduction to 3-hydroxy-C12-HSL; type: biochemical; conditions: 1 mM NADPH, 100 mM potassium phosphate pH 7.0, 20% DMSO, 30 C, 16 h; 4 mM substrate (5 mM in Results)
T1 construct: about 720 bp gene; His-tag purified from E. coli BL21 DE3 (pET-19b; also cloned in pET-21a); homotetramer
T1 sequence (B2BKB1 entry or part of it): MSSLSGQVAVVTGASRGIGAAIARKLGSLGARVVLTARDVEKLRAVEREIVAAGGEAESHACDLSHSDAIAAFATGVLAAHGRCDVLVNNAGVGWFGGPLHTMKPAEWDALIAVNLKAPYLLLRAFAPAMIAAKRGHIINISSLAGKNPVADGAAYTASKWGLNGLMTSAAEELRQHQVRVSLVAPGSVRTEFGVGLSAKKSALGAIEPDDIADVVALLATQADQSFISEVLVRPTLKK

BpiB09 [2] = biological target: T1, BpiB09; experiment: X-ray crystal structure, […] A; type: binding; conditions: 1 mM NADP+ added before crystallisation; 0.1 M citric acid pH 4.5, 1.5 M LiSO4; 292 K; nucleotide site; modelled as partial NADP+, nicotinamide half poorly defined
[3] = biological target: BpiB09 (soil metagenome (not yet cultivated microbe)); experiment: SEC; gel permeation chromatography during purification (data not shown)
[4] = biological target: BpiB09 (soil metagenome (not yet cultivated microbe)); experiment: crystal structure; BpiB09 with NADP+; crystals from 0.1 M citric acid pH 4.5 and 1.5 M LiSO4 at 292 K; space group I422, four copies per asymmetric unit, tetramer completed by a crystallographic dyad; 2.4 Å
[5] = biological target: BpiB09 (soil metagenome (not yet cultivated microbe)); experiment: AUC; analytical ultracentrifugation of recombinant BpiB09 and its mutants; conditions not given

`CCCCCCCCCC(=O)CC(=O)N[C@H]1CCOC1=O` [3-oxo-C12-HSL, N-(3-oxo-dodecanoyl)-L-homoserine lactone] was tested, and the “HPLC-MS of reduction to 3-hydroxy-C12-HSL” value (BpiB09 [1]) was “analyses of purified enzyme resulted in a turnover of 3-oxo-C12-HSL to 3-hydroxy-C12-HSL”.
`NC(=O)c1ccc[n+]([C@@H]2O[C@H](COP(=O)(O)OP(=O)(O)OC[C@H]3O[C@@H](n4cnc5c(N)ncnc54)[C@H](OP(=O)(O)O)[C@@H]3O)[C@@H](O)[C@H]2O)c1` [NADP+] was tested, and the “X-ray crystal structure, 2.4 A” value (BpiB09 [2]) was “adding NADP+ prior to crystallization resulted in a higher occupancy of the bound NADP+”.
BpiB09 (enzyme) showed a stoichiometry N [3] of 4, a stoichiometry N [4] of 4 and a stoichiometry N [5] of 4.
